Assay results reported in US8012929B2, “Peptides directed for diagnosis and treatment of amyloid-associated diseases” (Tel Aviv University Future Technology Development L.P., priority 2002, dated 2011).
Square brackets hold non-standard residues; d marks the D form. Ends that are not written are not given here. Aib = CC(C)(N)C(=O)O

Tests used:
[1] = molecular target: T1, full-length IAPP polypeptide (Homo sapiens, UniProt P10997); assay: ThT fluorescence assay of IAPP fibril formation with inhibitory peptides (Tris buffer); type: biochemical; settings: for inhibition of IAPP aggregation (ThT endpoint): 4 μM IAPP, 40 μM inhibitory peptide, 142 hours of incubation
T1 construct: purchased CalBiochem (La Jolla Calif., USA)
T1 sequence (P10997 34-70 limits assumed): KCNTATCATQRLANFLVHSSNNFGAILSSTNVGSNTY
Experimental: The ability of amyloidogenic peptides of IAPP, identified according to the teachings of the present invention to inhibit amyloid formation by the full-length polypeptide was tested by the addition of beta-breaker proline residues to the recognition sequence as set forth in the peptide sequence NFLVHPP (SEQ ID NO: 45). The degree of amyloid fibrils formation with and without the inhibitor was assessed using Thioflavin T (ThT) as molecular indicator. The degree of fluorescence of the ThT dye is directly correlated with the amount of amyloid fibrils in the solution [LeVine H 3rd. (1993) Protein Sci. 2:404-410. IAPP solutions ([…] hIAPPin 10 mM Tris buffer pH 7.2), were incubated in the presence or absence of 40[…] of the modified peptide (i.e., NFLVHPP) at room temperature. Fibril formation was determined by a ten fold dilution of the solutions into a solution that contained 3[…] thioflavin T (ThT) in 50 mM sodium phosphate pH 6.0 and determination of fluorescence at 480 nm with excitation at 450 nm using a LS50B spectroflurimeter (Perkin Elmar, Wellesley, Mass.). As a control 10 mM Tris buffer pH 7.2 were diluted into the ThT solution and fluorescence was determined as described.
The degree of amyloid fibril formation with and without the Aib inhibitor was assessed using thioflavin T (ThT) as molecular indicator. The degree of fluorescence of the ThT dye is directly correlated with the amount of amyloid fibrils in the solution [LeVine H 3rd. (1993) Protein Sci. 2:404-410].
[…]IAPP solutions (4 μM peptide in 10 mM Tris buffer pH 7.2), were incubated with or without 40 μM of the various peptide solutions at room temperature. Fibril formation was assessed by a ten fold diluation of the solutions into a solution which contained 3 μM thioflavin T (ThT) in 50 mM sodium phosphate pH 6.0 and determination of fluorescence at 480 nm with excitation at 450 nm using a Perkin Elmar LS50B spectroflurimeter. As a control a 10 mM Tris buffer pH 7.2 was diluted into the ThT solution and fluorescence was determined as described. […]

hIAPP1-37 = molecular target: T2, hIAPP1-37 (Homo sapiens, UniProt P10997); assay: Thioflavin T fluorescence assay of hIAPP fibrillization (sodium acetate buffer); type: biochemical; settings: 4 μM hIAPP1-37, 40 μM inhibitor, 10 mM sodium acetate pH 6.5
T2 construct: purchased CalBiochem (La Jolla Calif., USA)
T2 sequence (P10997 34-70 limits assumed): T1 sequence (P10997 34-70 limits assumed)
Experimental: Thioflavin T fluorescence assay—hIAPP fibrillization was monitored by Thioflavin T dye binding assay. hIAPP1-37 stock solution was diluted to a final concentration of 4 μM in 10 mM sodium acetate buffer (pH 6.5) with or without inhibitors (40 μM), and a final concentration of HFIP of 1% (vol). Immediately after dilution, sample was centrifuged for 20 minutes in 20,000×g at 4° C. and the supernatant fraction was used for fluorescence measurements. In every measurement ThT was added to a 1 ml sample at a final concentration of 3 μM and measurements were effected by using Perkin-Elmer (excitation 450 nm, 2.5 nm slit; emission 480 nm 10 nm slit). Background was subtracted from all samples.

MBP-IAPP1-37 = molecular target: T3, MBP-IAPP1-37 (Homo sapiens, UniProt P10997); assay: Binding of MBP-IAPP to membrane-spotted peptide arrays; settings: membrane-bound hIAPP decamers, 10 μg/ml MBP-IAPP1-37, densitometry, semiquantitative
T3 construct: incubated in the presence of 10 μg/ml MBP-IAPP1-37 at 4° C. for 12 h; made in house; host or cells: E. coli BL21(DE3)
T3 sequence (P10997 34-70 limits assumed): T1 sequence (P10997 34-70 limits assumed)
From the text: IAPP peptide array construction—Decamers corresponding to consecutive overlapping sequences of hIAPP1-37 SEQ ID NOs. 61-88) were synthesizes on a cellulose membrane matrix using the SPOT technique (Jerini AG, Berlin, Germany). The peptides were covalently bound to a Whatman 50 cellulose support (Whatman, Maidstone, England) via the C-terminal amino-acids. N-terminal acetylation was used for peptide scanning because of higher stability to peptide degradation, and better representation of the native recognition motif.
Thereafter, cellulose membrane was incubated in the presence of 10 μg/ml MBP-IAPP1-37 at 4° C. for 12 h in the same blocking buffer. The cellulose membrane was then washed repeatedly with 0.05% Tween 20 in TBS. […] HRP-conjugated goat anti mouse antibodies (Jackson Laboratories, USA) were used as a secondary antibody. Immunoblots were developed using the Renaissance western blot Chemiluminescence Reagent (NEN, USA) according to Manufacturer's instructions and signal was quantified using densitometry. Regeneration of the cellulose membrane for reuse was carried out by sequential washing with Regeneration buffer I including 62.5 mM Tris, 2% SDS, 100 Mm 2-mercaptoethanol, pH 6.7, and Regeneration buffer II including 8 M urea, 1% SDS, 0.1% 2-mercaptoethanol. Efficiency of the washing steps was monitored by contacting the membrane with the chemiluminescence reagent, as described.
To determine the specific role of the phenylalanine residue in IAPP-self assembly, a membrane-based binding assay was preformed in order to systematically explore the molecular determinants that facilitate the ability of the full-length hIAPP to recognize the “basic amyloidogenic unit”. To this end, the ability of MBP-IAPP (see Example 6) to interact with an array of peptides in which the phenylalanine position was systematically altered (SEQ ID NOs. 91-110), was addressed.

Substance | inhibition of IAPP fibrillization (ThT fluorescence at plateau) (hIAPP1-37) | binding to MBP-hIAPP1-37 (MBP-IAPP1-37) | other results
Aib-Phe-Phe ([Aib]-Phe-Phe) [EG12] |  |  | inhibition of IAPP aggregation (ThT endpoint) [1]: best inhibitor
D-Phe-D-Pro [EG29] | inhibition potential |  | 
D-Pro-Aib [EG28] | inhibition potential |  | 
D-Tyr-Aib [EG16] | effective inhibition |  | inhibition of IAPP aggregation (ThT endpoint) [1]: significant inhibitory effect on IAPP aggregation
Gln-Lys-Leu-Val-Phe-Phe [EG05, reference compound] | effective inhibition of IAPP fibrillization |  | 
NFLVHPP |  |  | ThT fluorescence of IAPP in the presence of the inhibitory peptide ([1]; hIAPP in 10 mM Tris pH 7.2 with or without modified peptide, room temperature): significant increase in fluorescence
hIAPP1-10: membrane-spotted decamer of hIAPP residues 1-10 (KCNTATCATQ) |  | no binding | 
hIAPP2-11: membrane-spotted decamer of hIAPP residues 2-11 (CNTATCATQR) |  | third binding spot | 
hIAPP3-12: membrane-spotted decamer of hIAPP residues 3-12 (NTATCATQRL) |  | no binding | 
